Measurements published in the RNAGym collection of RNA variant scans (doi:10.7554/elife.80360).

B1: Twister Ribozyme (parent)
chain: AACACUGCCAAUGCCGGUCCCAAGCCCGGAUAAAAGUGGAGGGGGCGG

Variants of: B1
Assay: self-cleavage, relative activity (ratio to wild type); higher = more cleavage; co-transcriptional

Variant | self-cleavage
AACACUGCCAAUGCCGGUCUCAAGCCCGGAUGAAAGUGGAGGGGGCGG | 0.82
AACACUGCCAAUGCCGGUCUCAAGCCCGGAUUAAAGUGGAGGGGGCGG | 0.887
AACACUGCCAAUGCCGGUCUCAAGCCCGGAUCAAAGUGGAGGGGGCGG | 0.758
AACACUGCCAAUGCCGGUCUCAAGCCCUGAUAAAAGUGGAGGGGGCGG | 0.906
AACACUGCCAAUGCCGGUCUCCAGCCCGGAUAAAAGUGGAGGGGGCGG | 1.01
AACACUGCCAAUGCCGGUCUGAAGCCCGGAUAAAAGUGGAGGGGGCGG | 0.0649
AACACUGCCAAUGCCGGUCUAAAGCCCGGAUAAAAGUGGAGGGGGCGG | 0.115
AACACUGCCAAUGCCGGUCUUAAGCCCGGAUAAAAGUGGAGGGGGCGG | 0.119
AACACUGCCAAUGCCGGUCGCAAGCCCGGAUAAAAGAGGAGGGGGCGG | 0.0911
AACACUGCCAAUGCCGGUCGCAAGCCCGGAUAAAAGCGGAGGGGGCGG | 0.0961
AACACUGCCAAUGCCGGUCUCAAGCCCGGAUAAAAGUGGAGGGGGCAG | 0.859
AACACUGCCAAUGCCGGUCUCAAGCCCGGAUAAAGGUGGAGGGGGCGG | 0.664
AACACUGCCAAUGCCGGUCUCAAGACCGGAUAAAAGUGGAGGGGGCGG | 0.078
AACACUGCCAAUGCCGGUCCAAAGCCCGGAUUAAAGUGGAGGGGGCGG | 0.152
AACACUGCCAAUGCCGGUCCAAAGCCCGGAUCAAAGUGGAGGGGGCGG | 0.169
AACACUGCCAAUGCCGGUCUCAAGCCCGGAUAAAAGUGGAGGCGGCGG | 0.125
AACACUGCCAAUGCCGGUCUCAAGCCCGGAUAUAAGUGGAGGGGGCGG | 0.778
AACACUGCCAAUGCCGGUCCAAAGCCCGGAUACAAGUGGAGGGGGCGG | 0.112
AACACUGCCAAUGCCGGUCCAAAGCCCGGAUAGAAGUGGAGGGGGCGG | 0.0711
AACACUGCCAAUGCCGGUCUCAAGCCCGGAUAAAAGGGGAGGGGGCGG | 0.702
AACACUGCCAAUGCCGGUCUCAAGCCCGAAUAAAAGUGGAGGGGGCGG | 0.81
AACACUGCCAAUGCCGGUCUCAAGCCCGGAUAAAAGUGGAGCGGGCGG | 0.654
AACACUGCCAAUGCCGGUCUCAAGCCCGGAUAAAAGUGGAGGGGACGG | 0.838
AACACUGCCAAUGCCGGUCUCAAGCCCGGAUAAAAGUGGAGGGGCCGG | 0.425
AACACUGCCAAUGCCGGUCUCAAGCCCGGAUAAAAGUUGAGGGGGCGG | 0.742
AACACUGCCAAUGCCGGUCUCAAGCCCGGAAAAAAGUGGAGGGGGCGG | 0.68
AACACUGCCAAUGCCGGUCUCAAGCCCGGAUAAAAGUGGCGGGGGCGG | 0.0976

Variant | self-cleavage
AACACUGCCAAUGCCGGUCUCAAGCACGGAUAAAAGUGGAGGGGGCGG | 0.138
AACACUGCCAAUGCCGGUCUCAAGCUCGGAUAAAAGUGGAGGGGGCGG | 0.128
AACACUGCCAAUGCCGGUCUCAAGCCCGGAUAAAAGUGGAGGGGGCGG | 1.01
AACACUGCCAAUGCCGGUCGCAAGCCCGGAAAAAAGUGGAGGGGGCGG | 0.103
AACACUGCCAAUGCCGGUCGCAAGCCCGGAGAAAAGUGGAGGGGGCGG | 0.146
AACACUGCCAAUGCCGGUCGCAAGCCCGGACAAAAGUGGAGGGGGCGG | 0.0873
AACACUGCCAAUGCCGGUCUCAAGCCCGGAUAAAAUUGGAGGGGGCGG | 0.0929
AACACUGCCAAUGCCGGUCUCAAGCCCGGAUAAAACUGGAGGGGGCGG | 0.135
AACACUGCCAAUGCCGGUCUCAAGCCCGGAUAAGAGUGGAGGGGGCGG | 0.373
AACACUGCCAAUGCCGGUCUCAAGCCCGGAUAAUAGUGGAGGGGGCGG | 0.404
AACACUGCCAAUGCCGGUCUCAAGCCCGGAUAAAAGUGGAGGGGGCGC | 1.04
AACACUGCCAAUGCCGGUCUCAAGCCCGGAUAAAAGUGGACGGGGCGG | 0.133
AACACUGCCAAUGCCGGUCCAAAGCCCGGUUAAAAGUGGAGGGGGCGG | 0.152
AACACUGCCAAUGCCGGUCCAAAGCCCGGCUAAAAGUGGAGGGGGCGG | 0.079
AACACUGCCAAUGCCGGUCUCAAGCCCGGAUAAAAGUGCAGGGGGCGG | 0.0926
AACACUGCCAAUGCCGGUCUCAAGCCCGGAUAAAAGUGUAGGGGGCGG | 0.15
AACACUGCCAAUGCCGGUCCACAGCCCGGAUAAAAGUGGAGGGGGCGG | 0.101
AACACUGCCAAUGCCGGUCCAGAGCCCGGAUAAAAGUGGAGGGGGCGG | 0.101
AACACUGCCAAUGCCGGUCUCAACCCCGGAUAAAAGUGGAGGGGGCGG | 0.0962
AACACUGCCAAUGCCGGUCUCAAUCCCGGAUAAAAGUGGAGGGGGCGG | 0.0768
AACACUGCCAAUGCCGGUCUCAAGCCCGGAUAAAAGUGGAGGGGGUGG | 0.969
AACACUGCCAAUGCCGGUCUCAAGCCCGGAUAAAAGUGGAGGGGGAGG | 0.784
AACACUGCCAAUGCCGGUCUCAAGCCCGGAUAAAAGUGGAGGGGGGGG | 0.815
AACACUGCCAAUGCCGGUCUCAGGCCCGGAUAAAAGUGGAGGGGGCGG | 0.121
AACACUGCCAAUGCCGGUCUCACGCCCGGAUAAAAGUGGAGGGGGCGG | 0.0767
AACACUGCCAAUGCCGGUCCAACGCCCGGAUAAAAGUGGAGGGGGCGG | 0.109
AACACUGCCAAUGCCGGUCCAAGGCCCGGAUAAAAGUGGAGGGGGCGG | 0.0801
